From patent US20230416330A1, “Optimized GIP Peptide Analogues” (Antag Therapeutics ApS, priority 2019, published 2023)
Starred links: 1 amine or outer side, 2 acyl side, 3 side chain; linkers in the order of their positions; H or OH if unused. Non-standard residues stand in square brackets, D forms with d. No end group written: not given here. *: point of attachment. C16 diacid = O=C(O)CCCCCCCCCCCCCCC(=O)*; Glutaryl = O=C(CCCC(=O)[*:2])[*:1]; Aib = CC(C)(N)C(=O)O

T1: human GIP receptor (human, UniProt P48546 22-466)
T1 sequence (looked up): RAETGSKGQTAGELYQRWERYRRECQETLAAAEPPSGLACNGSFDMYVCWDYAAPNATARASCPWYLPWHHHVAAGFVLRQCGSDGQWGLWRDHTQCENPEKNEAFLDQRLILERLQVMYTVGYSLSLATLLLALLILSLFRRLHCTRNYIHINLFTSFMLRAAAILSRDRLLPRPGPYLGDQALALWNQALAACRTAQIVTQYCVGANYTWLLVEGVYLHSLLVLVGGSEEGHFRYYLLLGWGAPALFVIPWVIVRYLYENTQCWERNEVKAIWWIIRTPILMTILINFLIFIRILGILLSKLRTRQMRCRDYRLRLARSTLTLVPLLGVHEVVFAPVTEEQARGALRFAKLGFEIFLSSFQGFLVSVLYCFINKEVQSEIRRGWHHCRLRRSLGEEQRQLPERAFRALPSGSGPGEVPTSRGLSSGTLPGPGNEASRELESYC


Biological target: T1, human GIP receptor
Test: cell-based or functional assay

Binder	nM (Kb, Gaddum assay, cAMP)	pKb (Gaddum assay, cAMP)
Glutaryl-GTFISEYSI[Aib]LEKIK(C16 diacid)QQEFVEWLLAQKPSSGAPPPS-OH (SMILES CC[C@H](C)[C@H](NC(=O)[C@H](CCCCN)NC(=O)[C@H](CCC(=O)O)NC(=O)[C@H](CC(C)C)NC(=O)C(C)(C)NC(=O)[C@@H](NC(=O)[C@H](CO)NC(=O)[C@H](Cc1ccc(O)cc1)NC(=O)[C@H](CCC(=O)O)NC(=O)[C@H](CO)NC(=O)[C@@H](NC(=O)[C@H](Cc1ccccc1)NC(=O)[C@@H](NC(=O)CNC(=O)CCCC(=O)O)[C@@H](C)O)[C@@H](C)CC)[C@@H](C)CC)C(=O)N[C@@H](CCCCNC(=O)CCCCCCCCCCCCCCC(=O)O)C(=O)N[C@@H](CCC(N)=O)C(=O)N[C@@H](CCC(N)=O)C(=O)N[C@@H](CCC(=O)O)C(=O)N[C@@H](Cc1ccccc1)C(=O)N[C@H](C(=O)N[C@@H](CCC(=O)O)C(=O)N[C@@H](Cc1c[nH]c2ccccc12)C(=O)N[C@@H](CC(C)C)C(=O)N[C@@H](CC(C)C)C(=O)N[C@@H](C)C(=O)N[C@@H](CCC(N)=O)C(=O)N[C@@H](CCCCN)C(=O)N1CCC[C@H]1C(=O)N[C@@H](CO)C(=O)N[C@@H](CO)C(=O)NCC(=O)N[C@@H](C)C(=O)N1CCC[C@H]1C(=O)N1CCC[C@H]1C(=O)N1CCC[C@H]1C(=O)N[C@@H](CO)C(=O)O)C(C)C) [AT717]	0.17 nM	9.8
EGTFISEYSIALEKIK(C16 diacid)QQEFVEWLLAQKPSSGAPPPS-OH [AT718]	0.33 nM	9.5
EGTFISEYSI[Aib]MEKIK(C16 diacid)QQDFVEWLLAQKPSSGAPPPS-OH (N-terminus assumed; SMILES CC[C@H](C)[C@H](NC(=O)[C@H](CCCCN)NC(=O)[C@H](CCC(=O)O)NC(=O)[C@H](CCSC)NC(=O)C(C)(C)NC(=O)[C@@H](NC(=O)[C@H](CO)NC(=O)[C@H](Cc1ccc(O)cc1)NC(=O)[C@H](CCC(=O)O)NC(=O)[C@H](CO)NC(=O)[C@@H](NC(=O)[C@H](Cc1ccccc1)NC(=O)[C@@H](NC(=O)CNC(=O)[C@@H](N)CCC(=O)O)[C@@H](C)O)[C@@H](C)CC)[C@@H](C)CC)C(=O)N[C@@H](CCCCNC(=O)CCCCCCCCCCCCCCC(=O)O)C(=O)N[C@@H](CCC(N)=O)C(=O)N[C@@H](CCC(N)=O)C(=O)N[C@@H](CC(=O)O)C(=O)N[C@@H](Cc1ccccc1)C(=O)N[C@H](C(=O)N[C@@H](CCC(=O)O)C(=O)N[C@@H](Cc1c[nH]c2ccccc12)C(=O)N[C@@H](CC(C)C)C(=O)N[C@@H](CC(C)C)C(=O)N[C@@H](C)C(=O)N[C@@H](CCC(N)=O)C(=O)N[C@@H](CCCCN)C(=O)N1CCC[C@H]1C(=O)N[C@@H](CO)C(=O)N[C@@H](CO)C(=O)NCC(=O)N[C@@H](C)C(=O)N1CCC[C@H]1C(=O)N1CCC[C@H]1C(=O)N1CCC[C@H]1C(=O)N[C@@H](CO)C(=O)O)C(C)C) [AT716]	0.29 nM	9.5
